Test results from patent publication US20160355583A1 (Novartis, published 2016).
Substitutions are numbered along the chain they refer to. Like-named read-outs stand apart in the source and are kept apart here.

T1: human BMP9 (BMP9/Growth Differentiation Factor 2 [Homo sapiens], NP_057288) (human, UniProt Q9UK05 320-429, limits assumed)
T1 sequence: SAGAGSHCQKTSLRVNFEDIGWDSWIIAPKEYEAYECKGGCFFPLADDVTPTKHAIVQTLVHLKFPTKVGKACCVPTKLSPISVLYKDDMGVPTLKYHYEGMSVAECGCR

T2: human BMP10 (Bone Morphogenetic Protein 10 Preproprotein [Homo sapiens], NP_055297) (human, UniProt O95393 317-424)
T2 construct: Bought recombinant protein; also called huBMP10; rhBMP10 (R&D Cat#2926-BP-025)
T2 sequence: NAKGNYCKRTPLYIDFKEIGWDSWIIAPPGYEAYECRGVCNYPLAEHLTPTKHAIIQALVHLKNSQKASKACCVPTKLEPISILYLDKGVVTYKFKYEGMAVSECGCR

T3: human BMP7 (human, UniProt P18075 293-431)
T3 construct: Bought recombinant protein; also called huBMP7; rhBMP7 (R&D Cat#354-BP-010)
T3 sequence (looked up): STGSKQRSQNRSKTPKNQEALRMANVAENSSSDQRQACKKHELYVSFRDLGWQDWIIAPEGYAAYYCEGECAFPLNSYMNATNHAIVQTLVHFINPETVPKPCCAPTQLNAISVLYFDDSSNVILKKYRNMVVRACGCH

T4: rat BMP9 (rat, UniProt M0RB87 320-430, The mature growth factor is a disulfide-linked homodimer. One copy of the polypeptide is given.)
T4 construct: also called rat BMP9 (R&D Systems 5566-BP); rat BMP9 condition medium
T4 sequence: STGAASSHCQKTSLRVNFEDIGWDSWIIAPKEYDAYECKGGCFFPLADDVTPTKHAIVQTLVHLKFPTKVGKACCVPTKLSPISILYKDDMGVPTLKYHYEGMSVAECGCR

T5: cyno BMP9 (cyno, UniProt G7PEU8 320-429)
T5 sequence: T1 sequence with A2T, D23N, V84I

T6: mouse BMP9 (mouse, UniProt Q9WV56 319-428, limits assumed)
T6 construct: also called murine BMP9; mouse BMP9 (iPROT101715)
T6 sequence (looked up): T1 sequence with A2T, G5S, E33D, V84I

B1: Antibody BMP9-1: AM0100 (antibody, human IgG1, kappa, V domains shown)
VH: QVQLVQSGAEVKKPGASVKVSCKASGYTFTRYWMHWVRQAPGQGLEWMGEINPSQGGTNYNEKFKSRVTMTVDKSISTAYMELSRLRSDDTAVYYCAIGSNYGGLVYWGQGTLVTVSS
VL: EIVLTQSPATLSLSPGERATLSCRASESLDNYGISFMNWFQQKPGQAPRFLIYAASNQGSGIPARFSGSGSGTDFTLTISSLQPEDTAVYFCQQSKEVPRTFGGGTKVEIKR
notes: also called 4E10D7-AM0100
B2: Antibody BMP9-4: AM4405 (antibody, human IgG1, kappa, V domains shown)
VH: QVQLVQSGAEVKKPGASVKVSCKASGYTFRSYNMHWVRQAPGQGLEWMGLIYPGNAVTSYSQKFKDRVTMTVDKSTSTAYMELSSLRSEDTAVYYCAKDDYFRGGSYAMDYWGQGTTVTVSS
VL: EIVLTQSPDFQSVTPKEKVTITCRASQSIRNNLHWYQQKPDQSPKLLIKYASQSIRGVPSRFSGSGSGTDFTLTINSLEAEDAATYYCQQSHSWPYTFGGGTKVEIKR
notes: also called 2B11G2-AM4405
B3: Antibody BMP9-6: MOR022965 (antibody, human IgG1, kappa, V domains shown)
VH: QVQLVQSGAEVKKPGSSVKVSCKASGGTFSSYAISWVRQAPGQGLEWMGHIIPHWGHARYAQKFQGRVTITADESTSTAYMELSSLRSEDTAVYYCARSASSLPHFHWFDYWGQGTLVTVSS
VL: DIQMTQSPSSLSASVGDRVTITCRASQDINNYLNWYQQKPGKAPKLLIYAASRLQSGVPSRFSGSGSGTDFTLTISSLQPEDFATYYCQQRDTTPWTFGQGTKVEIKR
notes: Fully human, phage display
B4: Mouse Antibody 2B11G2 (antibody, V domains shown)
VH: QAYLQQSGAELVRPGASVKMSCKASGYTFPSYNMHWVKQTPRQGLEWIGVIYPGNGVTSYSQKFKDKATLTVDKSSSTAYMQLSSLTSEDSAVYFCAKDDYFYGGSYAMDYWGQGTSVTVSS
VL: DIVLTQSPATLSVTPGDSVSLSCRASQSISNNLHWYQQISHESPRLLIKYASQSISGIPSRFSGSGSGTDFTLSINSMETEDFGMFFCQQSHSWPYTFGGGTKLEIK
notes: Mouse hybridoma monoclonal antibody; also called B211G2
B5: Mouse Antibody 4E10D7 (antibody, V domains shown)
VH: QVQLQQPGAEAVKPGASVKLSCKASGYTFTRYWMHWVKQRPGQGLEWIGEINPSNGGTNYNEKFKSKATLTVDKSSSTAYMQLSSLTSEDFAVYYCTMGSNYGGFVYWGQGTLVTVSA
VL: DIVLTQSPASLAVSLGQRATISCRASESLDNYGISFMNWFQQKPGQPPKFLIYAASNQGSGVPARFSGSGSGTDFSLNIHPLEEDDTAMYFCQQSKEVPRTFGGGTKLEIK
notes: Mouse hybridoma monoclonal antibody; also called parental 4E10D7 antibody

What was measured:
[1] = molecular target: T1, human BMP9 (BMP9/Growth Differentiation …); test: cell-based or functional assay
[2] = molecular target: T7, human BMP2 (human, UniProt P12643 283-396); test: Table 5 (caption: MSD-SET; Example 6 describes Biacore SPR on immobilised rhBMP2, Fab 31.25-1000 nM)
T7 construct: Bought recombinant protein; also called huBMP2; rhBMP2 (R&D Cat#355-BM-010)
T7 sequence (P12643 283-396 limits assumed): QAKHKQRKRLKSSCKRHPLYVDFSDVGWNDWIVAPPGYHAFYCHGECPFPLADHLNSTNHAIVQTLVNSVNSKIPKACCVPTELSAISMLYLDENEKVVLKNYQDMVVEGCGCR

[3] = molecular target: T2, human BMP10 (Bone Morphogenetic Protein …); test: Table 5 (caption: MSD-SET; Example 6 describes Biacore SPR on immobilised rhBMP10, Fab 31.25-1000 nM)
[4] = molecular target: T3, human BMP7; test: Table 5 (caption: MSD-SET; Example 6 describes Biacore SPR on immobilised rhBMP7, Fab 31.25-1000 nM)
[5] = molecular target: T1, human BMP9 (BMP9/Growth Differentiation …); test: blocking ELISA; competitor Type II BMP receptor (ActRIIB, BMPRII)
Description: (§1) Blocking ELISA was used to identify positive clones that can inhibit the interactions between BMP9 and its receptors. Four different recombinant BMP9 receptors can be used: human Alk1-Fc (R&D system, 370-AL-100); human BMPRII-Fc (R&D system, 811-BR-100); human ActRIIA-Fc (R&D system, 340-R2-100); human ActRIIB-Fc (R&D system).
(§2) The blocking activity of antibody sample to specific ligand/receptor combination was measured by ELISA. In brief, 50 ul of receptor at a concentration of 1 ug/ml in coating buffer (PBS) was added into 96 well ELISA plates at 4° C. overnight, followed by washing with PBST one time. ELISA plates were blocked with 200 ul blocking buffer (PBST containing 1% BSA) in each well and then incubated at room temperature (RT) for 1 hour, followed by washing with PBST for 3 times. Diluted antibody sample was mixed with biotinylated human BMP9 (bio-hBMP9 of 1 ug/ml) and incubated at RT for 45 minutes. The mixture of antibody and bio-hBMP9 was added to the plates of 50 ul/well and then incubated at RT for 30 minutes, followed by washing with PBST for 3 times. 50 ul Poly-HRP Streptavidin (Thermofisher, 21140) was added to each well of the plates and incubated at RT for 30 minutes, followed by washing with PBST for 5 times. Finally, 50 ul of TMB reagent (Invitrogen 002023) and 50 ul of 1N HCl (Invitrogen SS01100) were added to each well to stop the reaction. Absorbance of each well was read at 450 nm to get readout OD₄₅₀.

[6] = molecular target: T4, rat BMP9; test: MSD-SET solution equilibrium titration
Description: (§3) The amount of free Fab binding sites was determined by transferring the mixtures on antigen-coated plates and a brief incubation. The free Fab was consequently bound to the plate and detected with a detection antibody after a washing step for removing Fab-antigen complexes. The resulting signal was plotted versus the antigen concentration; and the KD was accurately determined by non-linear curve fitting.
(§4) A 22 serial 2ⁿ dilution of the antigens (human BMP9 (GD-43-KS00); cyno BMP9, rat BMP9 (R&D Systems 5566-BP) or mouse BMP9 (iPROT101715)) was prepared in incubation buffer (PBS (Teknova Cat#P0195) containing 0.5% BSA (Sigma Cat#A7906-500G) and 0.02% Tween-20 (VWR Cat#437082Q)). A constant concentration of the Fab was added. A volume of 60 ul of each antigen:Fab mix was distributed in duplicates to a 384-well polypropylene microtiter plate (PP MTP, Greiner Cat#781280). Incubation buffer served as negative control and a sample containing no antigen served as positive control (Bₘₐₓ). The plate was sealed and incubated overnight (O/N) at room temperature (RT).
(§5) A 384-well standard MSD array plate (Meso Scale Discovery Cat#L21XA) was coated with 30 ul/well human BMP9 diluted in PBS as capture agent and incubated O/N at 4° C. After washing for 3 times with 70 ul/well washing buffer (TBS (Teknova Cat#T1680) with 0.05% Tween-20), the plate was blocked with 50 ul/well blocking buffer (PBS with 5% BSA) for 1 hour at RT. After washing, a volume of 30 ul/well of the antigen:Fab mix was transferred from the PP MTP to the coated MSD plate and incubated for 20 min at RT. After an additional wash step, 30 ul of detection antibody (Goat anti-human Fab specific (Jackson Immuno Research Cat#109-005-097) conjugated with MSD SULFO-TAG NHS Ester (Meso Scale Discovery Cat#R91AN-1)) diluted 1:1000 in incubation buffer was added to each well and incubated for 30 min at RT. The MSD plate was washed and 35 ul/well of read buffer (MSD Read Buffer T 4×, Meso Scale Discovery Cat#R92TC-1) was added and then incubated for 5 min at RT. ECL signals were measured with the MSD SECTOR Imager 6000. The data was evaluated with XLfit (IDBS) software following a 1:1 fit model for Fab (according to Piehler et al., 1997).

[7] = molecular target: T1, human BMP9 (BMP9/Growth Differentiation …); test: MSD-SET solution equilibrium titration
Description: as §3, §4, §5

[8] = molecular target: T5, cyno BMP9; test: MSD-SET solution equilibrium titration
Description: as §3, §4, §5

[9] = molecular target: T6, mouse BMP9; test: MSD-SET solution equilibrium titration
Description: as §3, §4, §5

[10] = molecular target: T3, human BMP7; test: table caption: MSD-SET; Example 6 describes Biacore SPR for BMP2, BMP7, BMP10
[11] = molecular target: T7, human BMP2; test: as above
[12] = molecular target: T1, human BMP9 (BMP9/Growth Differentiation …); test: blocking ELISA; competitor Type I BMP receptor (AlkI)
Description: as §1, §2

[13] = molecular target: T1, human BMP9 (BMP9/Growth Differentiation …); test: cell-based or functional assay; remark: listed apart in the source
[14] = molecular target: T2, human BMP10 (Bone Morphogenetic Protein …); test: Table 7 (caption: MSD-SET; Example 6 describes Biacore SPR on immobilised rhBMP10, Fab 31.25-1000 nM)
[15] = molecular target: T7, human BMP2; test: table caption: MSD-SET; Example 6 describes Biacore SPR for BMP2, BMP7, BMP10; remark: listed apart in the source
[16] = molecular target: T1, human BMP9 (BMP9/Growth Differentiation …); test: Biacore SPR, bivalent model, ka1
[17] = molecular target: T1, human BMP9 (BMP9/Growth Differentiation …); test: Biacore SPR, bivalent model, KD from ka1 and kd1
[18] = molecular target: T1, human BMP9 (BMP9/Growth Differentiation …); test: Biacore SPR, bivalent model, kd1

Binder	RGA IC50 [pM] (HEK293T BRE-Luc reporter gene assay) [1]	binding result [3]	Kd [6] [nM]	Kd [7] [nM]	Kd [8] [nM]	Kd [9] [nM]	IC50 [12] [nM]	kon [16] [M⁻¹ s⁻¹]	Kd [17] [nM]	koff [18] [s⁻¹]	other results
B1	83	no binding	0.094	0.182	0.128	0.073					binding result [2]: no binding; binding result [4]: no binding; IC50 [5]: ≤ 1 nM
B2	90	no binding	0.013	0.018	0.048	0.008	≤ 1				Kd [10]: 9.17 µM; Kd [11]: 177 nM
B3				0.032	0.023	0.069	≤ 1				RGA IC50 [pM] (HEK293T BRE-Luc reporter gene assay) [13]: 180 pM; binding result [14]: no binding; Kd [15]: 3.11 µM
B4								2510	66.2	0.000166	
B5								281000	2.2	0.000617	
